B1: NRC3_wobSeed43_DR1_C8A_o1 (dsDNA)
DNA 1: GCCCAGAAAGGTGAAAGGTAACTCAGTCTGGTACGCGCGATTGACAGCGTAGAATGAAGG
DNA 2: CCTTCATTCTACGCTGTCAATCGCGCGTACCAGACTGAGTTACCTTTCACCTTTCTGGGC
B2: NRC3_wobSeed124_DR5_C24G_o1 (dsDNA)
DNA 1: GCCCTACTGGGCCATTCAGAGGTGATTGATCATATGGCGATTGACAGCGTAGAATGAAGG
DNA 2: CCTTCATTCTACGCTGTCAATCGCCATATGATCAATCACCTCTGAATGGCCCAGTAGGGC
B3: NRC3_wobSeed114_DR4_T12C_o1 (dsDNA)
DNA 1: GCAATACAGGGCCATCGTAGGCCAGAGTACGCACAGGCGATTGACAGCGTAGAATGAAGG
DNA 2: CCTTCATTCTACGCTGTCAATCGCCTGTGCGTACTCTGGCCTACGATGGCCCTGTATTGC
B4: NRC3_wobSeed2_DR0_T12C_o1 (dsDNA)
DNA 1: GCCCTAGTTGGCCAAGGTCACACACGCTATAGGTACGCGATTGACAGCGTAGAATGAAGG
DNA 2: CCTTCATTCTACGCTGTCAATCGCGTACCTATAGCGTGTGTGACCTTGGCCAACTAGGGC
B5: NRC3_wobSeed118_DR4_C7A_o1 (dsDNA)
DNA 1: GCTTACAAAGGTGAGCTGAGGTCGTTGATCCAACTCGCGATTGACAGCGTAGAATGAAGG
DNA 2: CCTTCATTCTACGCTGTCAATCGCGAGTTGGATCAACGACCTCAGCTCACCTTTGTAAGC
B6: NRC3_wobSeed5_DR0_T19A_o1 (dsDNA)
DNA 1: GCCCTTACGGGTCAAGGTAATAGCACGGGTGGTACGGCGATTGACAGCGTAGAATGAAGG
DNA 2: CCTTCATTCTACGCTGTCAATCGCCGTACCACCCGTGCTATTACCTTGACCCGTAAGGGC
B7: NRC3_wobSeed66_DR2_G9C_o1 (dsDNA)
DNA 1: GCAATACACGGTCACTAGGCCAGAGTAGGTACGAATGCGATTGACAGCGTAGAATGAAGG
DNA 2: CCTTCATTCTACGCTGTCAATCGCATTCGTACCTACTCTGGCCTAGTGACCGTGTATTGC
B8: NRC3_wobSeed121_DR5_G21A_o1 (dsDNA)
DNA 1: GCCAAACTAGGTCACCGGAAAGTCAAAGTCCGCATGGCGATTGACAGCGTAGAATGAAGG
DNA 2: CCTTCATTCTACGCTGTCAATCGCCATGCGGACTTTGACTTTCCGGTGACCTAGTTTGGC
B9: NRC3_wobSeed137_DR5_T13A_o1 (dsDNA)
DNA 1: GCATATGTAGGTAACATCCGGGTCATTCAGGCTATGGCGATTGACAGCGTAGAATGAAGG
DNA 2: CCTTCATTCTACGCTGTCAATCGCCATAGCCTGAATGACCCGGATGTTACCTACATATGC
B10: NRC3_wobSeed40_DR1_T15C_o1 (dsDNA)
DNA 1: GCTAGCCTAGGTCACGGGCCAGTATACCACGCGAACGCGATTGACAGCGTAGAATGAAGG
DNA 2: CCTTCATTCTACGCTGTCAATCGCGTTCGCGTGGTATACTGGCCCGTGACCTAGGCTAGC
B11: NRC3_wobSeed40_DR1_A24T_o1 (dsDNA)
DNA 1: GCTAGCCTAGGTCATGGGCCAGTTTACCACGCGAACGCGATTGACAGCGTAGAATGAAGG
DNA 2: CCTTCATTCTACGCTGTCAATCGCGTTCGCGTGGTAAACTGGCCCATGACCTAGGCTAGC
B12: NRC3_wobSeed99_DR4_A24C_o1 (dsDNA)
DNA 1: GCTCTCGGAGGACACGAAAGGTCCGAGCTCGACATCGCGATTGACAGCGTAGAATGAAGG
DNA 2: CCTTCATTCTACGCTGTCAATCGCGATGTCGAGCTCGGACCTTTCGTGTCCTCCGAGAGC
B13: NRC3_wobSeed36_DR1_T25C_o1 (dsDNA)
DNA 1: GCCCGACTGGGGCAAAGGTTACCACACTCAGTACGAGCGATTGACAGCGTAGAATGAAGG
DNA 2: CCTTCATTCTACGCTGTCAATCGCTCGTACTGAGTGTGGTAACCTTTGCCCCAGTCGGGC
B14: NRC3_wobSeed47_DR1_T18G_o1 (dsDNA)
DNA 1: GCGGAACGAGGGCAAAGGTGATAGCATCTGTCGACGGCGATTGACAGCGTAGAATGAAGG
DNA 2: CCTTCATTCTACGCTGTCAATCGCCGTCGACAGATGCTATCACCTTTGCCCTCGTTCCGC
B15: NRC3_wobSeed10_DR0_G6C_o1 (dsDNA)
DNA 1: GCATCCAAAGGTCGAGGTGAGTATAGAGAAAGGGAAGCGATTGACAGCGTAGAATGAAGG
DNA 2: CCTTCATTCTACGCTGTCAATCGCTTCCCTTTCTCTATACTCACCTCGACCTTTGGATGC
B16: NRC3_wobSeed10_DR0_C13A_o1 (dsDNA)
DNA 1: GCATCGAAAGGTAGAGGTGAGTATAGAGAAAGGGAAGCGATTGACAGCGTAGAATGAAGG
DNA 2: CCTTCATTCTACGCTGTCAATCGCTTCCCTTTCTCTATACTCACCTCTACCTTTCGATGC
B17: NRC3_wobSeed42_DR1_T12A_o1 (dsDNA)
DNA 1: GCTATACAGGGACAAAGGCCAGAGTACGAATGTCGAGCGATTGACAGCGTAGAATGAAGG
DNA 2: CCTTCATTCTACGCTGTCAATCGCTCGACATTCGTACTCTGGCCTTTGTCCCTGTATAGC
B18: NRC3_wobSeed82_DR3_G20T_o1 (dsDNA)
DNA 1: GCATCGAAAGGTCGACGAGTTGAGTATACACCGTTTGCGATTGACAGCGTAGAATGAAGG
DNA 2: CCTTCATTCTACGCTGTCAATCGCAAACGGTGTATACTCAACTCGTCGACCTTTCGATGC
B19: NRC3_wobSeed136_DR5_T27A_o1 (dsDNA)
DNA 1: GCTAGCCTAGGTCATTCAGGGGCCAGAATAGAAAGCGCGATTGACAGCGTAGAATGAAGG
DNA 2: CCTTCATTCTACGCTGTCAATCGCGCTTTCTATTCTGGCCCCTGAATGACCTAGGCTAGC
B20: NRC3_wobSeed120_DR4_A6C_o1 (dsDNA)
DNA 1: GCCCGCGTAGGTTACGAGGGGGCATTCAGTGCGAATGCGATTGACAGCGTAGAATGAAGG
DNA 2: CCTTCATTCTACGCTGTCAATCGCATTCGCACTGAATGCCCCCTCGTAACCTACGCGGGC
B21: NRC3_wobSeed120_DR4_G20T_o1 (dsDNA)
DNA 1: GCCCGAGTAGGTTACGAGGTGGCATTCAGTGCGAATGCGATTGACAGCGTAGAATGAAGG
DNA 2: CCTTCATTCTACGCTGTCAATCGCATTCGCACTGAATGCCACCTCGTAACCTACTCGGGC
B22: NRC3_wobSeed120_DR4_G21C_o1 (dsDNA)
DNA 1: GCCCGAGTAGGTTACGAGGGCGCATTCAGTGCGAATGCGATTGACAGCGTAGAATGAAGG
DNA 2: CCTTCATTCTACGCTGTCAATCGCATTCGCACTGAATGCGCCCTCGTAACCTACTCGGGC
B23: NRC3_wobSeed76_DR3_T21G_o1 (dsDNA)
DNA 1: GCCCTACTGGGCCAAAAAGGGCATTGATGCCGATAAGCGATTGACAGCGTAGAATGAAGG
DNA 2: CCTTCATTCTACGCTGTCAATCGCTTATCGGCATCAATGCCCTTTTTGGCCCAGTAGGGC
B24: NRC3_wobSeed30_DR1_G16C_o1 (dsDNA)
DNA 1: GCACTAGCAGGCCAACGGTCACTCAAGATTAGTCCGGCGATTGACAGCGTAGAATGAAGG
DNA 2: CCTTCATTCTACGCTGTCAATCGCCGGACTAATCTTGAGTGACCGTTGGCCTGCTAGTGC
B25: NRC3_wobSeed93_DR3_A8G_o1 (dsDNA)
DNA 1: GCAGTCAGAGTTCATCTAGGTAACGTAAGATATGCTGCGATTGACAGCGTAGAATGAAGG
DNA 2: CCTTCATTCTACGCTGTCAATCGCAGCATATCTTACGTTACCTAGATGAACTCTGACTGC
B26: NRC3_wobSeed93_DR3_A18T_o1 (dsDNA)
DNA 1: GCAGTCAAAGTTCATCTTGGTAACGTAAGATATGCTGCGATTGACAGCGTAGAATGAAGG
DNA 2: CCTTCATTCTACGCTGTCAATCGCAGCATATCTTACGTTACCAAGATGAACTTTGACTGC
B27: NRC3_wobSeed93_DR3_A9C_o1 (dsDNA)
DNA 1: GCAGTCAACGTTCATCTAGGTAACGTAAGATATGCTGCGATTGACAGCGTAGAATGAAGG
DNA 2: CCTTCATTCTACGCTGTCAATCGCAGCATATCTTACGTTACCTAGATGAACGTTGACTGC
B28: NRC3_wobSeed32_DR1_A25C_o1 (dsDNA)
DNA 1: GCTCTTGTAGATCAAAGGTTAAGACAGCCGAAGCCTGCGATTGACAGCGTAGAATGAAGG
DNA 2: CCTTCATTCTACGCTGTCAATCGCAGGCTTCGGCTGTCTTAACCTTTGATCTACAAGAGC
B29: NRC3_wobSeed32_DR1_G18A_o1 (dsDNA)
DNA 1: GCTCTTGTAGATCAAAGATTAAGAAAGCCGAAGCCTGCGATTGACAGCGTAGAATGAAGG
DNA 2: CCTTCATTCTACGCTGTCAATCGCAGGCTTCGGCTTTCTTAATCTTTGATCTACAAGAGC
B30: NRC3_wobSeed142_DR5_G13T_o1 (dsDNA)
DNA 1: GCATACCAAGGTTATCGTGAGGTCGTTGATACTAACGCGATTGACAGCGTAGAATGAAGG
DNA 2: CCTTCATTCTACGCTGTCAATCGCGTTAGTATCAACGACCTCACGATAACCTTGGTATGC
B31: NRC3_wobSeed89_DR3_C22T_o1 (dsDNA)
DNA 1: GCCTATGTAGGTTAAGGGGGTTATTCAGTTTGAAAGGCGATTGACAGCGTAGAATGAAGG
DNA 2: CCTTCATTCTACGCTGTCAATCGCCTTTCAAACTGAATAACCCCCTTAACCTACATAGGC

Chain of RARa:RXRa (P10276 whole entry, chain 1 of 2): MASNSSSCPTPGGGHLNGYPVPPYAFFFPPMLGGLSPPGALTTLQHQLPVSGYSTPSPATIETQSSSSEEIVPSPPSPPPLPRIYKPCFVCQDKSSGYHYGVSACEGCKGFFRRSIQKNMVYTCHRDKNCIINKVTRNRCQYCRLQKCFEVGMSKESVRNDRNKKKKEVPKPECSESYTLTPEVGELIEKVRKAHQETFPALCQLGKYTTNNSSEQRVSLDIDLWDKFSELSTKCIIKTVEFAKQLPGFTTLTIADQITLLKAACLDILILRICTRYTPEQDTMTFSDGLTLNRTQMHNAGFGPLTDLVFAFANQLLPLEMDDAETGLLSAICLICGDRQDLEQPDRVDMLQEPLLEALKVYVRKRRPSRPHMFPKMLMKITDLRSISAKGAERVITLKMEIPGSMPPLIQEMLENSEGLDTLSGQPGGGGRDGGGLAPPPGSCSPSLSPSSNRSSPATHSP
Chain of RARa:RXRa (P19793 whole entry, chain 2 of 2): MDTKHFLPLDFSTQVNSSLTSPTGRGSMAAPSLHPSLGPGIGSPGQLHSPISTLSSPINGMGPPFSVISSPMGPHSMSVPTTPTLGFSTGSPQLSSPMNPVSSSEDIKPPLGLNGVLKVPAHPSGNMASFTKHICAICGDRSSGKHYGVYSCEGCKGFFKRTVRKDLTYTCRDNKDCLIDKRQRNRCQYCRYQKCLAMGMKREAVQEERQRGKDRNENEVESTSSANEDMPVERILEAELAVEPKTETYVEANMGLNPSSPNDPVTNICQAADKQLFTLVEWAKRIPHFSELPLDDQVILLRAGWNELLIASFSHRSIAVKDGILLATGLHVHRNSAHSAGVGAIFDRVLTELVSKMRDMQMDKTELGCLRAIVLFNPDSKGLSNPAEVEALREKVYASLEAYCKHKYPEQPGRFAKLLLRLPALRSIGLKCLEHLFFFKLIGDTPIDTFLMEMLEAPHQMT

The series has as its target RARa:RXRa (Homo sapiens, UniProt P10276;P19793 full;full). Description: no ligand; PBM; 270 nM : 90 nM RXRa; PBS pH 7.4, 2% milk, 0.02% Triton X-100, 1 mM DTT, BSA, 0.4 mg/ml salmon testes DNA. To be noted: tags: His kept;His cleaved; copies: 1;1; label: surface-attached array probe. The method in brief:
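Scanned fluorescence from custom Agilent 4×180K protein-binding microarrays was regression-normalized. Binding z-scores use random background probes as reference. Ligand-free nuclear receptor dimers were incubated on the arrays for 1 h and detected with antibodies against each partner (one per run).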
As to B1, the binding signal was 3.8 PBM z-score against 500 random probes.
Turning to B2, the binding signal is 0.45 PBM z-score against 500 random probes.
In the case of B3 it was -0.01 PBM z-score against 500 random probes; in that of B4, 3.86 PBM z-score against 500 random probes.
On to B5, for which the binding signal is 3.12 PBM z-score against 500 random probes.
In the case of B6 it was 3.77 PBM z-score against 500 random probes; in that of B7, 0.46 PBM z-score against 500 random probes.
In the case of B8 it was 3.41 PBM z-score against 500 random probes; in that of B9, 3.23 PBM z-score against 500 random probes.
With B10, the binding signal is 3.59 PBM z-score against 500 random probes.
For the molecule B11, the binding signal is 3.16 PBM z-score against 500 random probes.
Take B12: the binding signal is 0.41 PBM z-score against 500 random probes.
The value for B13 was 3.7 PBM z-score against 500 random probes; that for B14 was 3.09 PBM z-score against 500 random probes.
The value for B15 was 3.47 PBM z-score against 500 random probes; that for B16 was 0.4 PBM z-score against 500 random probes; that for B17 was 0.27 PBM z-score against 500 random probes.
The value for B18 was 3 PBM z-score against 500 random probes; that for B19 was 3.51 PBM z-score against 500 random probes; that for B20 was 3.19 PBM z-score against 500 random probes.
Turning to B21, the binding signal was 0.47 PBM z-score against 500 random probes.
The value for B22 was 0.37 PBM z-score against 500 random probes; that for B23 was -0.04 PBM z-score against 500 random probes; that for B24 was 0.08 PBM z-score against 500 random probes.
In the case of B25 it was 3.62 PBM z-score against 500 random probes; in that of B26, 3.45 PBM z-score against 500 random probes; in that of B27, 0.24 PBM z-score against 500 random probes.
In the case of B28 it was 3.05 PBM z-score against 500 random probes.
As for B29, the binding signal was 0.26 PBM z-score against 500 random probes.
For the molecule B30, the binding signal is 3.65 PBM z-score against 500 random probes.
In the case of B31 it was 3.33 PBM z-score against 500 random probes.

Values taken from PMC6555819, “Comprehensive study of nuclear receptor DNA binding provides a revised framework for understanding receptor specificity”.
